Experimental data reported in publication PMC9097636, “FOXO transcription factors differ in their dynamics and intra/intermolecular interactions” (Current Research in Structural Biology, 2022).
Blank lines part the entries; values can stand above or below the binder they belong to.

Key:
Assay in all cases: NMR titration; 1H,15N HSQC of 50 uM 15N-labelled FH domain, unlabelled CR3 added in trans (25 uM or 50 uM); 50 mM NaH2PO4/Na2HPO4 pH 6.5, 0.04% NaN3, 5 mM DTT; 25 C; read-out chemical shift perturbations and line broadening
Details in all cases: both partners purified
[1] = biological target: T1, FOXO1 forkhead (FH) domain, amino acids 143 to 270 (human, UniProt Q12778 143-270)
T1 construct: human FOXO1 (Forkhead box O1), Uniprot Q12778, amino acids 143 to 270, forkhead domain; Uniformly 15N-labelled in the NMR titrations; Cloned into the vector pETM11-ZZ-His6 via NcoI/BamHI; also called FOXO1^FH; FOXO1 FH domain; source: E. coli BL21-DE3 Star, purified (Ni-NTA, TEV cleavage, second Ni-NTA, SEC)
T1 sequence (Q12778 143-270): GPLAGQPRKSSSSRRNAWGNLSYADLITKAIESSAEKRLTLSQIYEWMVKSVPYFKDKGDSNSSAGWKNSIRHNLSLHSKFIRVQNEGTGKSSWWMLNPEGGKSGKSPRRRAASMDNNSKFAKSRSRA

[2] = biological target: T2, FOXO6 forkhead (FH) domain, amino acids 71 to 191 (human, UniProt A8MYZ6 71-191)
T2 construct: human FOXO6 (Forkhead box O6), Uniprot A8MYZ6, amino acids 71 to 191, forkhead domain; Uniformly 15N-labelled in the NMR titrations; Cloned into the vector pETM11-ZZ-His6 via NcoI/BamHI; also called FOXO6^FH; FOXO6 FH domain; source: E. coli BL21-DE3 Star, purified (Ni-NTA, TEV cleavage, second Ni-NTA, SEC)
T2 sequence (A8MYZ6 71-191): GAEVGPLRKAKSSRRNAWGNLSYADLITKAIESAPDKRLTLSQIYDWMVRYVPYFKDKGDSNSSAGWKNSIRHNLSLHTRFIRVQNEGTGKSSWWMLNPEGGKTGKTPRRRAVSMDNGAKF

[3] = biological target: T3, FOXO3 forkhead (FH) domain, amino acids 141 to 260 (human, UniProt O43524 141-260)
T3 construct: human FOXO3 (Forkhead box O3), Uniprot O43524, amino acids 141 to 260, forkhead domain; Uniformly 15N-labelled in the NMR titrations; Cloned into the vector pETM11-ZZ-His6 via NcoI/BamHI; also called FOXO3^FH; FOXO3 FH domain; source: E. coli BL21-DE3 Star, purified (Ni-NTA, TEV cleavage, second Ni-NTA, SEC)
T3 sequence (O43524 141-260): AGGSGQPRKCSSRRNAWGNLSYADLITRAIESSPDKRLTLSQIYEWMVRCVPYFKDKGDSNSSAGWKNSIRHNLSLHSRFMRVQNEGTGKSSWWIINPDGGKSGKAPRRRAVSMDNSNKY

binding result [1]: binds | binding result [2]: binds
B1: FOXO6 conserved region 3 (CR3, transactivation domain), amino acids 418 to 472 (domain or fragment, human, UniProt A8MYZ6 418-472, looked up)
chain: YAAAAAGPLGAAPDRFPADLDLDMFSGSLECDVESIILNDFMDSDEMDFNFDSAL
notes: human FOXO6, Uniprot A8MYZ6, amino acids 418 to 472, CR3; Unlabelled in the titrations; also called FOXO6^CR3; CR3 of FOXO6; source: E. coli BL21-DE3 Star, lysed in 6 M urea, purified (Ni-NTA, TEV cleavage, second Ni-NTA, SEC)

binding result [3]: binds | binding result [1]: binds | binding result [2]: binds
B2: FOXO1 conserved region 3 (CR3, transactivation domain), amino acids 587 to 636 (domain or fragment, human, UniProt Q12778 587-636, looked up)
chain: YGRMGLLHQEKLPSDLDGMFIERLDCDMESIIRNDLMDGDTLDFNFDNVL
notes: human FOXO1, Uniprot Q12778, amino acids 587 to 636, CR3; Unlabelled in the titrations; also called FOXO1^CR3; CR3 of FOXO1; source: E. coli BL21-DE3 Star, lysed in 6 M urea, purified (Ni-NTA, TEV cleavage, second Ni-NTA, SEC)
